# Data as given in patent US20080311122A1, “Antagonists of Hmgb1 and/or Rage and Methods of Use Thereof” (Medimmune, LLC, priority 2005, published 2008).
# B1: E11: human anti-HMG1 antibody, recognizes HMG1 A-Box; VL/VH aa SEQ ID NO: 24/26 (antibody, listed as Homo sapiens, V domains shown)
# VH: EVQLLESGGGLVQPGGSLRLSCAASGFTFSRYQMNWVRQAPGKGLEWVSSISPSGGHTHYADSVKGRFTISRDNSKNTLYLQMNSLRAEDTAVYYCAKDGRQGKISTVDHWGQGTLVTVSS
# VL: AQDIQMTQSPGTLSLSPGERATLSCRASQSVRSNFLAWYQQKPGQAPRLLIYGASRRASGIPDRFSGSGFGADFTLSISRLEPEDFAVYYCQQYGSSPNTFGQGSRVEIK
# Key:
# [1] = system: heat inactivated S. aureus induced peritonitis; experiment: S. aureus mouse model of peritonitis; type: in vivo
# Procedure: Induction of Peritonitis: Four-six week old female BALB/c mice were used. […] For determination of HMG1 levels on day 0 approximately 10^9 heat inactivated S. aureus (strain 8325-4) cells premixed with 20 mg of galactosamine or galactosamine alone in a 200 μl volume of PBS was administered i.p. A third group of animals was not challenged. Animals were euthanized at 2, 8, and 12 hours after challenge by CO2 inhalation and blood was collected by cardiac puncture. For the antibody treatment studies on day 0 approximately 10^9 heat inactivated S. aureus (strain 8325-4) cells premixed with 20 mg of galactosamine were administered i.p. in a 200 μl volume and the following treatments were administered i.p. in a 100 μl volume 30 minutes prior to challenge as shown in Table 7.
# The animals were also weighed 2× weekly. Animals showing signs of significant morbidity were euthanized. On day 15 all surviving animals were euthanized (euthanized sooner if significant morbidity observed).
# [2] = system: active CIA mouse model of arthritis; experiment: Active collagen-induced arthritis (CIA) mouse model; type: in vivo; conditions: percent protection, isotype control subtracted
# Procedure: Induction of Active Collagen Induced Arthritis (CIA) in Mice: Six-eight week old male DBA/1J mice (Jackson Labs, Bar Harbor, Me.) were used. On day 0, isoflurane anesthetized animals were given an intradermal injection, at base of tail, of 200 μg bovine Type II collagen (CII) dissolved in 50 μl 0.1 N acetic acid and emulsified with an equal volume of complete Freund's adjuvant (Chondrex, Redmond, Wash.). Three weeks later on day 21 they were given a second similar intradermal injection of 100 μg of CII dissolved in 25 μl 0.1N acetic acid and emulsified with an equal volume of incomplete Freund's adjuvant (Difco, Detroit, Mich.).
# Monitoring Disease in Mice: Beginning at day 14 all animals were observed daily to assess the status of the disease in their paws, which was done by assigning a qualitative clinical score to each of the paws. Every day, each animal has its 4 paws scored according to its state of clinical disease. The scoring is done by two observers, with at least one blinded. In addition, each mouse is weighed, to follow body weight changes, at the same time the paws are scored.
# The grading scale for the 4 lateral digits of each paw are graded as involved or not involved, i.e., 1 or 0. For example, a maximally involved left rear paw would be scored: ankle=3, midfoot=3, digits=4 (clinical score=10 units) We would repeat this for each paw and sum the scores. […]
molecule,measurement,setting,value
B1,mice survived,[1]; lethal dose of heat inactivated S. aureus,8%
same,in vivo S. aureus,"[1]; percent protection, isotype control subtracted",8%
same,in vivo CIA active,[2],0%
